Assay results: the DeepSol protein solubility set

experiment: soluble on expression in E. coli; label from the status in PepcDB or PDB records

Sequence	soluble on expression in E. coli
MGSDKIHHHHHHMTKHIHWDGNLSQEGFEIVKGEGGVIVCPTKVGYIIMTSDKKGLERKFEAKKRNRNKPGVVLCGSMEELRALAQLTPEIDAFYQKHWDEDILLGCILPWKAEAYEKLKAYGDGREELMTDIRGTSCFVIKFGVAGEQIAKEMWEKEGRMVYASSANPSGKGNRGKVEGIGERIESMVDLVIEADDYVASIQPDKTIETRYEQGVMVSMVDKDGKLIPQQGADSRSVEPCPVVIRKGLDIDKIMMHLSDQFNSWNYRQGEYY	not soluble
MGSDKIHHHHHHQQKSADVVENQFTTIKEVPITPVKDQANSGTCWSYSALGFLESEILRMGKPEVDLAEMHSVAQSYKDKGEKYVRMHGKLNFGQGGSFYDVLYVVKHYGVVPQSVMQGLNYGTKKNAHSELADGALAYLKAIVTNPNGKLTPAWKKAYDGIIDSYLGTCPETFTYEGKTYTPKSFAQYLGLNVDDYVSLTSYTHHPFYTQFALEIEDNWRGSLSYNMPINELMETMEYAINNGYSIAWGSDVSEVGFTRDGIGVLADVEGIEAKGSDQDRWVGLSRAEKQAEIIRTVNSADCPEINPTQEFRQKGYDEYSLTDDHGMVIYGIAKNQNGRKFFMVKNSWGETGKYKGIWYASYNFVAGRTMNIIVHKKAIPAAIAKKLGIRQ	not soluble
MKKVAVLLAPGFEEAEAIVTLDILRRLHIDVETLACAESRAVVSYHDIPMVADSTLSERQQALFDAVVLPGGPQGSANLAANPAVIAFVARHDAAGKLICPICSAAARVLGAHGLLKGRRYVCSGDLWKAVPEGVYVDAPVVEDGNLISGKGLGHVFDFALTLSARLLGDDAPVREQAEHIYYPW	not soluble
MPNDLPLLPPKNQHKHLDKTMISLPSDFRHLAHVGPMGSSEIENLRTSDNVIDTVNESSYYIRPSSSNSTLRSQRKEKDRVGLDDAFPSASKSEEEVEVVRGYENQPTSHQYINIAPPRPSKKNYKAPAPPTPPPQNSKPNLIFNAQDDEEETSEISEQPVVFRSISHTSNISTHIAPPPKIQTADRIVAPKPNSLVIERPGDLGGAFSFGLDDCIPIVKSTPPLNTLSPLHRPLAIPKNQEETPILSPASPPDDSNYMSTIRSTSVQGRKILDELDDWLDDLDDLDRDQLSTISTDESGYPTLALEKDRAFMKHLVEKYELGVAPETIRLRKKKGPAPKAPSLPPDLSSPTFQAPGFIPAFSARPVSMPPNRPPPSYEAPSFDAPEAPGTVLINGRALTKQNALDLRSSDESGVPPAIARFLYDKRIKSATMPMSIGRMTSSSGNTDVSTTSSRSNADTVSSILSTVGEDDDVEVLKRDREVEEEFVPPVPKPRSRKTVSTEPLKEEEEENVEEEIKGENVIGEEFQVVGDTKINDEQEDRVEATKDKINDAFIMLPPPSAAAMIPSDSESEDDDNFIITRF	not soluble
MQAYRGTGKTSQLISQKKPISILILGVDQGIEGRHDRGNSDTMILATMNPEKKEATMTSIPRDLLADIKGDGRGEGKYYMFRANSAYQVGGSKGATRTVKALLNTPVNYYMEVNMKALESMVEALGGVDVNVPFTFTYHTHFRKGKQHLNGKEALDYVRMRKEDPKGDYGRQMRQRQVINDIVRKGMSVNSITNYRKILKVFAKYVKTNLTFDDMLSIAMNYRGCTQNIKSGYIQGHNVWIGAAAMQVASTKELQRVSDLVRSSLGLKQEKLEHHHHHH	soluble
GPGSMTTQNGVNYSQREVVHRMPDWVANRRASVNRGHVAPPLTADGMNPRKASFSGSNGEKQGAVYNNYTERVSSRSGGDRIFSFDNRSTSRRESGTNVSVRSLQPVAGRTAVTHTIRFRGARWSQALSNMSVALERAIKEDVAACCGISSERIGQMKMKFTDRLVVTFVLDHSHDPSEESRFHNQLKVYNFWRTVALYPRK	soluble
MAARDPEATKARIFEAAVAEFARHGIAGARIDRIAAEARANKQLIYAYYGNKGELFASVLEKKMLDLAISVPVDPDDIEGWIDRLLDYHAAHPELLRLLFWEGMEYGTAELPHEAERQEHYARKVAAVRDGQERGVITDAIPAPDLLFLLVAMANWAVVVPQMKRILVGGGDAGTDGLRDSIKKAARRIVDR	not soluble
MGSDKIHHHHHHMEKLKLMTIVGTRPEIIRLSSTIKACDQYFNQILVHTGQNYDYTLNQIFFDDLELRQPDHYLEAVGSNLGETMGNIIAKTYDVLLREQPDALLILGDTNSCLAAVSAKRLKIPVFHMEAGNRCFDQNVPEEINRKIVDHVSDVNLPYTEHSRRYLLDEGFNKANIFVTGSPMTEVIEAHRDKINHSDVLNKLGLAPAAYILVSAHREENIDNEKNFKSLMNAINDIAKKYKMPVIYSTHPRSWKKIEESKFEFDPLVKQLKPFGFFDYNALQKDAFVVLSDSGTLSEESSILKFPGVLIRTSTERPEVLDKGTVIVGGITYNNLIQSVELAREMQNNNEPMIDAIDYKDTNVSTKVVKIIQSYKDIINRNTWRK	not soluble
MSLRTTHIPLVAIVLASVCSSLAAPKAGGLELIILHNNDMHARFEQTGAYSNDCQPSDVASNRCYGGFARVAHKVREYRATEASGGLPVLYLNAGDTYTGTPWFSVFKDNITAAFLNILKPDAISLGNHEFDLGVEGLVPFLNEVDFPVLVTNLDLSKTPEMQTSRSLQRSIIFTKAGVRIGVIGYLTPETKQLAPINTVEFLDEIEEINKEATSLKNQGVNILIALGHSGLERDKEIAAQCPDVDLVIGGHSHTFLYSGTAPDVEDPAGPYPVMVKNAAGKEVPVVQAYAYTKYLGYLHLQFDTEGNLIELDGTPLLLNGTVERDSDVLQLLELYRPGILALDAQIGHSNVFLDSSRCRFEECNIGNMIADSLVITYATTREQSNDGFWTDAAIGFIQGGGIRASVNAGPITMKDLKTVLPFGNAMVVTDITGAQLRQMLEQSVHRYDGVSGYGEFLQMAGVNVEYDLSRPPMQRVVHVKVRCARCQVPAYEELQDDGVYRVILSQFLYDGGDGYEMLPGSPRQLLTFGEYEITEEYLKRYSPIYPAIEWRIRMQGQPNVTEGHHHHHH	soluble
MVGWWPVGRRQAWHRFFPCHRRPALRCDAHSFFAPGKHIMAHRILTLGEITDGFDVVLSDVWGVLHNGVSAFPDAAVALHEARKAGKTVVLITNSPRPAPGVIAQLRVLGVPDEAYDRIITSGDVTRGLIAEGPKKVFLLGPERDMPLLEGLDVERVGEAEAQSVVCTGFFDDETETPEDYTEMLKGFIARKVPMICANPDLVVERGERIIPCAGAMAAYYEQLGGEVRIAGKPHAPIYEACLAAAKDVRGAFAKDRVLAIGDGMPTDVKGAIASGLNLLYISGGIHAAEYTLNGQTDEALLNAYLKGQGAAPGWWMPRLA	not soluble
MGFDLDVEKKKENRNIPQANNLKIKVIGVGGAGNNAINRMIEIGIHGVEFVAVNTDLQVLEASNADVKIQIGENITRGLGAGGRPEIGEQAALESEEKIREVLQDTHMVFITAGFGGGTGTGASPVIAKIAKEMGILTVAIVTTPFYFEGPERLKKAIEGLKKLRKHVDTLIKISNNKLMEELPRDVKIKDAFLKADETLHQGVKGISELITKRGYIRLTSRFARIESVMKDAGAAILGIGVGKGEHRAREAAKKAMESKLIEHPVENASSIVFNITAPSNIRMEEVHEAAMIIRQNSSEDADVKFGLIFDDEVPDDEIRVIFIATRFPDEDKILFPEGDIPAIYRYGLEGLL	soluble
MSLVQSINTKVDLTIDATAYTGLTDYGKIMIGDKGFEFFNSRDVRKFVQIPWEEVDQVIVSVMLKGKWIPRYAIKTKRNGTYTFASKRPKEVLRKIRVYVDPANMVSSLSFFDVMKRSFRSIFSKKKNKNKEGHHHHHH	not soluble
MAASRDIFAPDFRRRPYWWEGYEPPECGEDTLPASADVAIVGGGYTGVCCALALREAGIEAVVLEAGRPGEGASTRSGGQVSGGVNVQKKALAAVGESAGQRAERLAARLRDAAASMAYVESLIERYAIECGWHRTGRLTTMWVPAHYQSWQARLDQLNACTGSQARMIPREELAAEIGSSVYHGAALIEHAGHLQPAQLYGGMLRAARDAGARVLGRTPVERIERRAGGYDVHTARGTVRAGQVVIATNGYTGANLGGLKRRIVPVCTHMITTEALPPDLAASLLPTNRAVSESRRVVNHYRLSPDGRRLLFGGRARFVPTDEATTARLLYRAMLKRFPQLAGTRITHSWGGNVAMTLDSMPHIGGADGLHYALGCNGSGVAMMSYLGHCVGRKIATQSGEPINAFDMGEIPGHPFYFGNPWFLFAIGSWYQARDAYDHWRARLEHHHHHH	not soluble
MSSLAKLGYFFDEKGVLKTEKDKKPFKFTTQEDYEELGEAVDLEVYELLETRCGLKRKALKLPGKTDEDEDLSFIFVSKNFKKAANLLVLIHGSGVVRAGQWARRLIINDNLECGTQIPYIERAIENGWGVVVMNTNLNESKDQDLKYSRTPVEHAETVWIACIEPSNAKSIYVVAHSRGGYDTASVLKKFGGDDRISKICLTDSPWFEFPKSCAQRARPLFVVNFLAHGALNSPSYKVREYREGNVAELWAGTQIHEWSSHCAIDAVFHILETEMTPSNYAEVMEEAKKLVVKSENSKESDDEAPKSKKICV	not soluble
VERAQDGLYTIDERGVIDFCNDSFAATLGYEPGKLCGTHILEVLAPGEFPKGQAAVEELLEAPDQESTTVDLTFRRKDGAERELSFNHTLTHDEAGNYNGVIGVARDVT	not soluble
MGSDKIHHHHHHMQNPRRICVADPNHRLSQKRFTRNSRDIFICPDCGCIMADVDFDHDQYESGDYYTMQHKTVQSIEEVWGFRWRYILDQILKINGRSSLLDVGAGNGYFVALASREFSFDASGLEISQEEVQFAADVLNIGLIREDLTQHNLDYDVVTCLNVLEHVVDPQLFLSHLVNRVKPGGLLVITTPNPACIHRKVKGLKNWNMIAPPHHINLFTKESLYILLMRYGLIQLDYQTISTYVNFVRGFDTENLLLRRLFFNLLKIFDLGADHFFIVKKPSQC	not soluble
MSSQKSGIVVQSDETHILISSSHDIFVADPDQNTKLGDSVSFTTWDIANNLKRASDIKPRNQIVESVVYEQDQSLRLRLKILGFYDFTKSQQRVFRTDFITQVREGEKFKYLPKNAFFGRQITVKLTHQKNSIVWELDEFEEPKEKTYSLIGQIYYTDFSDAYVYVPGYPEPFVISKETNFSRSEEGTWVKFLACTATASVKKSEGFQFLEKDLLDTNRNREIAIKCSRKDGIIQSHHFEKVIDKDNRLADYGVLSDFENVLIYVKVSMEGVSKKPSLILGQFQTSFNVNPTLTRDQKEALDPPKRILKKQSSLPREGSSRKQVTQIQNLSRKIETGPRINFLPNFNNQDHGSEFFSDNEEMDLVPPLENSHLRVDPVPVPIEPSIQQNRTTTTAPISAPARRISSNESRRENPNSQPAPSKMQNVFREDPEAEYKRPERSNADNDETSSTISACSSKSRIVRENPDANYERPARRLPTPPLEANDNLEHQSHDSSSTDGLRDTSPVGNNTNPRSGSPSCHSDTHSSVSSSLWITTINSSKDLEFVKNEYIKLWIEDQASQKEMKNLKAKRIELKMKQKKLKAELNDEKMKNQKLEEAAFNDRKEKAELKKKVSNLEQSAQNTQRTLQNQTRELNLYSTNRSWLRKEFNSTNLLEHLRRNYHDLSKRLEQFAFN	not soluble
MGSDKIHHHHHHMEILQRQLLFKLAVCQGIGNLGILKVLQEAIAQKRVDFSSTEIIRIAEIKKYRELFEQSWLHHTIHSEALYIRQCQHQFMTILDAVYPKLLREIYNPPAILFYRGNLQLLSRRKIGIVGARYATSYGLRVTEALVPKIVKEGFTIVSGLAKGIDSRSHEMAIQNGGQTIGILGTGLDVYYPYEKKELQQTMKQNQLVLTEYVNGSGPKKYHFPARNRIIAGLSLGVCVMEARKNSGSLITAQAAMDYGREVFAVPGSIFQSFSTGCHELIQDGAKCVQTIDDICEEL	not soluble
